{"source": "patent US20020058798A1", "about": "(YEDA RESEARCH AND DEVELOPMENT, published 2002)", "key": {"[1]": {"target": "T1, Mouse Fas-IC, full (mouse, UniProt P25446 187-327)", "T1 construct": "domain: FAS-IC (intracellular domain); also called mFAS-IC", "T1 sequence (looked up)": "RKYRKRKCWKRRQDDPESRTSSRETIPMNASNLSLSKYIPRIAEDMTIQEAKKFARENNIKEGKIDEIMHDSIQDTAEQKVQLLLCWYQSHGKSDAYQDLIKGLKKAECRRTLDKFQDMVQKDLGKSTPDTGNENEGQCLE", "experiment": "yeast two-hybrid beta-galactosidase filter assay (SFY526); row = Gal4 DNA-binding-domain hybrid, column = activation-domain hybrid; ++ = strong color within 30 min"}, "[2]": {"target": "the molecule itself", "experiment": "yeast two-hybrid beta-galactosidase filter assay (SFY526); row = Gal4 DNA-binding-domain hybrid, column = activation-domain hybrid; ++ = strong color within 30 min"}, "[3]": {"target": "T2, Mouse Fas-IC 197-306 (mouse, UniProt P25446 218-327)", "T2 construct": "range 197-306", "T2 sequence (looked up)": "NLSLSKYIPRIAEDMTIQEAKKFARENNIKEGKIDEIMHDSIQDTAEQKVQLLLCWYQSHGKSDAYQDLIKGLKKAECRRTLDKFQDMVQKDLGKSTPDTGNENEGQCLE", "experiment": "yeast two-hybrid beta-galactosidase filter assay (SFY526); row = Gal4 DNA-binding-domain hybrid, column = activation-domain hybrid; ++ = strong color within 30 min"}, "[4]": {"target": "T3, SNF1 (UniProt P06782 1-633, limits assumed)", "T3 sequence (looked up)": "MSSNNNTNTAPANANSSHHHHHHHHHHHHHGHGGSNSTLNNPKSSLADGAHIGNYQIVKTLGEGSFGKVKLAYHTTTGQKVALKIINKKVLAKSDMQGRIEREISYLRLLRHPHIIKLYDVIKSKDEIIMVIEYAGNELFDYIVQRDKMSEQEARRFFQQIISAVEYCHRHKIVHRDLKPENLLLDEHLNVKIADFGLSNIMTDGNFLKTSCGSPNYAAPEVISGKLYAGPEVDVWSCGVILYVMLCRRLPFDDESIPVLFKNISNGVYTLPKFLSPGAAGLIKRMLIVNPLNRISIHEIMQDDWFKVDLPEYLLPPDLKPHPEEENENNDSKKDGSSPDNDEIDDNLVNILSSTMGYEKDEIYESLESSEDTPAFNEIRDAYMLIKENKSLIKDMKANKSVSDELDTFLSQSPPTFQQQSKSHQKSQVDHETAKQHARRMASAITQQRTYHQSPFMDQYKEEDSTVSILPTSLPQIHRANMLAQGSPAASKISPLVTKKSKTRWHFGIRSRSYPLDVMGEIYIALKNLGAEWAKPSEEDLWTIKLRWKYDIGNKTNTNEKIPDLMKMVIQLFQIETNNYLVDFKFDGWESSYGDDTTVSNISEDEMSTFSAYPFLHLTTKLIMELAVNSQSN", "experiment": "yeast two-hybrid beta-galactosidase filter assay (SFY526); row = Gal4 DNA-binding-domain hybrid, column = activation-domain hybrid; + = strong color within 90 min; positive control"}, "[5]": {"target": "T4, GST-mFAS-IC I225A (GST fusion with FAS-IC containing an Ile to Ala replacement at position 225) (mouse, UniProt P25446 187-327)", "T4 construct": "also called GST-FAS-IC with a replacement at the lpr^cg mutation site; not shown: Glutathione S-transferase (GST)", "T4 sequence (looked up)": "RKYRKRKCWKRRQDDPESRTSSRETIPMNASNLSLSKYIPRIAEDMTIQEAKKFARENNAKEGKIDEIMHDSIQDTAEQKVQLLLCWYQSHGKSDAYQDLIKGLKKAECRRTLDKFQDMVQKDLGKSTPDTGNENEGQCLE", "experiment": "GST pull-down: 35S-labeled FLAG-HF1 from HeLa extracts on GST fusion bound to glutathione beads, SDS-PAGE and autoradiography", "text": "The [³⁵S] labeled proteins of the HeLa cells including the labeled FLAG-MORT1 fusion protein having been first extracted were subjected to interaction with the various GST and GST-FAS-IC proteins (bound to glutathione beads) and then to SDS-PAGE. As controls in all of the interaction experiments, extracts of HeLa cells transfected with luciferase were subjected to interactions with the GST and GST-FAS-IC fusion proteins and SDS-PAGE. FIGS. 1A and B are also described in Example 1.\nExpression of HF1 (MORT-1) molecules fused at their N terminus with the FLAG octapeptide (FLAG-HF1) yielded in HeLa cells proteins of four distinct sizes—about 27, 28, 32, and 34 kD. […] Thus the in vitro interaction was evaluated by assessing, by autoradiography following SDS-PAGE, the binding of [³⁵S] metabolically labeled HF1, produced in transfected HeLa cells as a fusion with the FLAG octapeptide (FLAG-HF1), to GST, GST fusion with the human or mouse FAS-IC (GST-huFAS-IC, GST-mFAS-IC) or to GST fusion with FAS-IC containing an Ile to Ala replacement mutation at position 225."}}}
{"binder": "MORT-1 (full) (other, The Gal4 part is not written as a piece; Met 49 is a possible translation start; also called HF1; HF-1) VNQAPECRFGGGILGPLGKRRDLARASEPRTEGARRAGPQPRPLADPAMDPFLVLLHSVSSSLSSSELTELKFLCLGRVVKRKLERVQSGLDLFSMLLEQNDLEPGHTELLRELLASLRRHDLLRRVDDFEAGAAAGAAPGEEDLCAAFNVICDNVGKDWRRLARQLKVSDTKIDSIEDRYPRNLTERVRESLRIWKNTEKENATVAHLVGALRSCQMNLVADLVQEVQQARDLQNRSGAMSPMSWNSDASTSEAS", "values": [{"measurement": "binding result", "setting": "[1]", "result": "binds"}, {"measurement": "binding result", "setting": "[2]", "result": "binds"}, {"measurement": "binding result", "setting": "[3]", "result": "binds"}]}
{"binder": "SNF4 (other, UniProt P12904 1-322, looked up) MKPTQDSQEKVSIEQQLAVESIRKFLNSKTSYDVLPVSYRLIVLDTSLLVKKSLNVLLQNSIVSAPLWDSKTSRFAGLLTTTDFINVIQYYFSNPDKFELVDKLQLDGLKDIERALGVDQLDTASIHPSRPLFEACLKMLESRSGRIPLIDQDEETHREIVVSVLTQYRILKFVALNCRETHFLKIPIGDLNIITQDNMKSCQMTTPVIDVIQMLTQGRVSSVPIIDENGYLINVYEAYDVLGLIKGGIYNDLSLSVGEALMRRSDDFEGVYTCTKNDKLSTIMDNIRKARVHRFFVVDDVGRLVGVLTLSDILKYILLGSN", "values": [{"measurement": "binding result", "setting": "[4]", "result": "binds"}]}
{"binder": "FLAG-MORT1 fusion protein (MORT-1 N-linked to the FLAG octapeptide) (other, metabolically labeled with [35S]methionine (and [35S]cysteine for the co-immunoprecipitations), also called FLAG-HF1; HF1-FLAG; not shown: FLAG octapeptide (Eastman Kodak)) VNQAPECRFGGGILGPLGKRRDLARASEPRTEGARRAGPQPRPLADPAMDPFLVLLHSVSSSLSSSELTELKFLCLGRVVKRKLERVQSGLDLFSMLLEQNDLEPGHTELLRELLASLRRHDLLRRVDDFEAGAAAGAAPGEEDLCAAFNVICDNVGKDWRRLARQLKVSDTKIDSIEDRYPRNLTERVRESLRIWKNTEKENATVAHLVGALRSCQMNLVADLVQEVQQARDLQNRSGAMSPMSWNSDASTSEAS", "values": [{"measurement": "binding result", "setting": "[5]", "result": "no binding"}]}
